The target in experiment [1] is FP-TM(-)-His, His-Tag-added hMPV (JPS02-76) FP lacking the transmembrane region (amino acid residues 491 to 539 of FP) (human metapneumovirus, strain JPS02-76 (type B1)) (UniProt Q6WB98).
For experiment [2], the target named is F protein of human metapneumovirus strain JPS05-21 (type B2), on infectious virus (human metapneumovirus, strain JPS05-21 (type B2)). Description: cell-based or functional assay.
The target in experiment [3] is F protein of human metapneumovirus strain JPS02-76 (type B1), on infectious virus (human metapneumovirus, strain JPS02-76 (type B1)) (UniProt Q6WB98). In words: cell-based or functional assay.
For experiment [4], the target named is F protein of human metapneumovirus strain JPS03-180 (type A1), on infectious virus (human metapneumovirus, strain JPS03-180 (type A1)). Description: cell-based or functional assay.
Experiment [5] deals with F protein of human metapneumovirus strain JPS03-178 (type A2), on infectious virus (human metapneumovirus, strain JPS03-178 (type A2)). Description: cell-based or functional assay.
Experiment [6] deals with FP-TM(-)-His, His-Tag-added hMPV (JPS02-76) FP lacking the transmembrane region (amino acid residues 491 to 539 of FP) (human metapneumovirus, strain JPS02-76 (type B1)) (UniProt Q6WB98). Description: SPR, Biacore T-200; antibody captured by anti-human IgG, FP-TM(-)-His as analyte. (In general: Surface plasmon resonance follows binding to a sensor surface in real time, without labels.)

Read-outs that look alike come from different tables or passages of the source.

A word on the Kd: it is a measure of binding affinity in units of concentration. What is called koff is the first-order rate constant of dissociation. In general, kon refers to the rate constant with which the complex forms. Low values mean slower complex formation, high ones faster complex formation. mouse anti-hMPV antibody mAb338: in experiment [1], the dissociation constant (Kd) is less than 10 nM. In experiment [2], this substance registered an IC50, neutralizing activity (hMPV infection of LLC-MK2 cells; GraphPad Prism 6) of 0.221 mg/L; an IC60, neutralizing activity (hMPV infection of LLC-MK2 cells; GraphPad Prism 6) of 0.261 mg/L; an IC90, neutralizing activity (hMPV infection of LLC-MK2 cells; GraphPad Prism 6) of 0.547 mg/L. Moreover, in experiment [3], the IC50, cell-to-cell spread inhibitory activity (LLC-MK2 cells stably expressing TMPRSS2) was 0.0215 mg/L; the IC50, neutralizing activity (hMPV infection of LLC-MK2 cells; GraphPad Prism 6) was determined as 0.281 mg/L; the IC60, neutralizing activity (hMPV infection of LLC-MK2 cells; GraphPad Prism 6) was determined as 0.338 mg/L; the IC90, cell-to-cell spread inhibitory activity (LLC-MK2 cells stably expressing TMPRSS2) was determined as 0.0938 mg/L. For the same substance, the IC90, neutralizing activity (hMPV infection of LLC-MK2 cells; GraphPad Prism 6) in experiment [3] was 0.772 mg/L. In experiment [4], this substance registered an IC50, neutralizing activity (hMPV infection of LLC-MK2 cells; GraphPad Prism 6) of 0.125 mg/L; an IC60, neutralizing activity (hMPV infection of LLC-MK2 cells; GraphPad Prism 6) of 0.16 mg/L; an IC90, neutralizing activity (hMPV infection of LLC-MK2 cells; GraphPad Prism 6) of 0.498 mg/L. In experiment [5], this substance registered an IC50, neutralizing activity (hMPV infection of LLC-MK2 cells; GraphPad Prism 6) of 0.18 mg/L; an IC60, neutralizing activity (hMPV infection of LLC-MK2 cells; GraphPad Prism 6) of 0.239 mg/L; an IC90, neutralizing activity (hMPV infection of LLC-MK2 cells; GraphPad Prism 6) of 0.856 mg/L. In experiment [6], this substance came in with a Kd of 0.531 nM, an off-rate (koff) of 0.000228 s⁻¹ and a kon of 434000 M⁻¹ s⁻¹.

The values above are taken from US20150322137A1.
